Results as given in paper PMC7811047.

Target: N-terminal protein A (PA)-Renilla luciferase (RL)-ARFRP1 fusion protein (UniProt Q13795)
Test: co-IP

Sequence of UniProt Q13795 (Q13795 whole entry, the tested form may be a part): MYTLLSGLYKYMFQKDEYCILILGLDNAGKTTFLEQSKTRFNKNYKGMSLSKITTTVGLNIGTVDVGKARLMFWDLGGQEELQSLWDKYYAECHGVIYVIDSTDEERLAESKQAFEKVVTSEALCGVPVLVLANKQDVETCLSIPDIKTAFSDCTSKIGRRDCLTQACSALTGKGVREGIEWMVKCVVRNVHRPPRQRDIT

- fold luciferase activity over control: 2.8 fold
Substance: V5-firefly luciferase (FL)-tagged VPS35 (from UniProt Q96QK1 1-796) (natural protein)
